Assay results from paper PMC4642984.

Key:
[1] = molecular target: ELucC-BMAL1 deletion mutant Bd4 (mouse) (UniProt Q9WTL8); experiment: split reporter (BiFC, NanoBiT); Split Luc complementation in living Cos7 cells transfected with ELucN-CK2β and ELucC-BMAL1 (WT or mutant) together with pcDNA, Myc-HA-CRY1, Myc-CRY2 or FLAG-CRY1 (WT or Cd1-4); real-time bioluminescence, averaged peak values
[2] = molecular target: ELucC-BMAL1 deletion mutant Bd5 (mouse) (UniProt Q9WTL8); experiment: as above
Chain of ELucC-BMAL1 deletion mutant Bd5 (mouse) (Q9WTL8 other isoform, or with tags, fused parts or gaps, stated change not applied): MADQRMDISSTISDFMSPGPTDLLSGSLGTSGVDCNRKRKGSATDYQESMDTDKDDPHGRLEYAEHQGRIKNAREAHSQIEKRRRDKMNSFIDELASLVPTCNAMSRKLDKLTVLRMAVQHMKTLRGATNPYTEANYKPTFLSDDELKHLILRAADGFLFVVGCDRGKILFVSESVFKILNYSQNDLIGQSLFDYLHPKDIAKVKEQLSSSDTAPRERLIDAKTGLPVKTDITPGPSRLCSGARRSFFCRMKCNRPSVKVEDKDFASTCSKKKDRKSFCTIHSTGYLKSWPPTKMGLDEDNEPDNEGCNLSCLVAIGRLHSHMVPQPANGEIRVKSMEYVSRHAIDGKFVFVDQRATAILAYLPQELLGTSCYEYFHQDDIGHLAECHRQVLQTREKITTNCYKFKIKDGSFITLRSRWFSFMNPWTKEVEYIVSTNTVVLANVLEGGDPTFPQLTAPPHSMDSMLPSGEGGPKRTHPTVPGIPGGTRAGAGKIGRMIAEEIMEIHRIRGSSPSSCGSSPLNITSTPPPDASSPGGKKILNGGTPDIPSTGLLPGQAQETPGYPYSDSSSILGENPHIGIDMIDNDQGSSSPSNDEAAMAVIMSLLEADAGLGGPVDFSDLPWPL

Chain of ELucN-CK2β (P67870 whole entry): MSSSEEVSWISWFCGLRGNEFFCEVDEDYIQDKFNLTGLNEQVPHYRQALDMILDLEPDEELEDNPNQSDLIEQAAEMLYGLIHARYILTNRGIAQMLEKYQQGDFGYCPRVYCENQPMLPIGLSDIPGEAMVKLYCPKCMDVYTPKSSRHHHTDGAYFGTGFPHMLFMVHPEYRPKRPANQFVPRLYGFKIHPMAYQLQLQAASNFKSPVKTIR
Chain of ELucC-BMAL1 deletion mutant Bd4 (mouse) (Q9WTL8 other isoform, or with tags, fused parts or gaps, stated change not applied): as the sequence (Q9WTL8 other isoform, or with tags, fused parts or gaps, stated change not applied) above

ELucN-CK2β (from UniProt P67870 1-215) (natural protein)
Split Luc bioluminescence, fold of BMAL1-WT [1]: 2 fold
Split Luc bioluminescence, percent of BMAL1-WT [2]: 30%
